Experimental data taken from publication PMC3025556.

T1: NIP7 (human, recombinant) (Homo sapiens, UniProt Q9Y221 1-180)
T1 sequence: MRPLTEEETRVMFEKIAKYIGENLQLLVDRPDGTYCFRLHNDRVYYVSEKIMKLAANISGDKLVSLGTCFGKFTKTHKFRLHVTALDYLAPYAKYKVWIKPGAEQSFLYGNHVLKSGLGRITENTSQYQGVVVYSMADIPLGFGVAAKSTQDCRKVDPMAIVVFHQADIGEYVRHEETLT

T2: Nip7p (yeast) (Saccharomyces cerevisiae, UniProt Q08962 1-181)
T2 sequence: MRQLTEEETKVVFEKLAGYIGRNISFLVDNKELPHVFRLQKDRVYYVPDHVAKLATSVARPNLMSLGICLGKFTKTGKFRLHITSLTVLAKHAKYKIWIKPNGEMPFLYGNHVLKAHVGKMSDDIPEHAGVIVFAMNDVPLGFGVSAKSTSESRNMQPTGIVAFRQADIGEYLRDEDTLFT


Legend:
[1] = biological target: T1, NIP7 (human, recombinant); assay: EMSA
Nip7p (yeast) = biological target: T2, Nip7p (yeast); assay: EMSA

Binder | binding result [1] | binding result (Nip7p (yeast))
UUAUUAUUUAUUUAUUAUUUA (ssRNA) [poly-AU(21)] | binds | –
UUUUUUUUUUUUUUUUUUUU (ssRNA) [poly-U(20)] | – | binds
